In paper PMC4073888:

Target: T1, 6xHis-NELF-E-mOrange (Drosophila, UniProt P92204 1-280)
T1 sequence: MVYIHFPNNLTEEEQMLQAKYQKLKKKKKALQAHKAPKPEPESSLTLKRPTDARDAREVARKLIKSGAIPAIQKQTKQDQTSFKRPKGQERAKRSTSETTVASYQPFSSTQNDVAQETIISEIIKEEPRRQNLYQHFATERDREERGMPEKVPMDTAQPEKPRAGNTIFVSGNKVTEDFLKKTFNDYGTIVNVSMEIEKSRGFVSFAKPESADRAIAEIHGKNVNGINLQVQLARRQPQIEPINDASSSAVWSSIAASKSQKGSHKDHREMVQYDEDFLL
Experiment: HiTS-RAP fluorescence

B1: NELFapt A39U_U61A (structured_RNA)
RNA: GGGAAUGGAUCCACAUCUACGAAUUCCCAACGACUGCCGAGCGAGAUUACGCUUGAGCGCCCCUCUGAGGAUGCCCACGGGCGAUAGGGGCACGGCUUCACUGCAGACUUGACGAAGCUU
binding result: binds
